This data set deals with the molecule itself. As to the kind of experiment: cross-linking.

Values joined by “and” are separate entries in the source; they are usually repeats but may differ in a detail not shown here. Identical values can stand only once.

B1: 6xHis-WT-mVP40 (Marburg virus matrix protein VP40, wild type) (natural protein)
chain: MASSSNYNTYMQYLNPPPYADHGANQLIPADQLSNQQGITPNYVGDLNLDDQFKGNVCHAFTLEAIIDISAYNERTVKGVPAWLPLGIMSNFEYPLAHTVAALLTGSYTITQFTHNGQKFVRVNRLGTGIPAHPLRMLREGNQAFIQNMVIPRNFSTNQFTYNLTNLVLSVQKLPDDAWRPSKDKLIGNTMHPAVSIHPNLPPIVLPTVKKQAYRQHKNPNNGPLLAISGILHQLRVEKVPEKTSLFRISLPADMFSVKEGMMKKRGENSPVVYFQAPENFPLNGFNNRQVVLAYANPTLSAV
With B1, the “stoichiometry N” value is 6 and 4.

(Values after paper doi:10.1101/2020.11.13.381350 (bioRxiv, 2020).)
